Measurements published in patent publication US20240132589A1.

What was measured:
[1] = target: Human LILRB2 on stably transduced HEK293T cells (human) (UniProt Q8N423); assay: flow cytometry competition on HEK293T-LILRB2 cells; blocking mAb 1 µg/mL; competitor: biotinylated B2Comp2
[2] = target: Human LILRB2 on stably transduced HEK293T cells (human) (UniProt Q8N423); assay: flow cytometry competition on HEK293T-LILRB2 cells; blocking mAb 1 µg/mL; competitor: biotinylated B2Comp1
[3] = target: Human LILRB2 on stably transduced HEK293T cells (human) (UniProt Q8N423); assay: flow cytometry competition on HEK293T-LILRB2 cells; blocking mAb 10 µg/mL; competitor: biotinylated B2Comp2
[4] = target: Human LILRB2 on stably transduced HEK293T cells (human) (UniProt Q8N423); assay: flow cytometry competition on HEK293T-LILRB2 cells; blocking mAb 10 µg/mL; competitor: biotinylated B2Comp1
[5] = target: Human LILRB2 on stably transduced HEK293T cells (human) (UniProt Q8N423); assay: flow cytometry competition on HEK293T-LILRB2 cells; blocking mAb 0.1 µg/mL; competitor: biotinylated B2Comp2
[6] = target: Human LILRB2 on transiently transfected HEK293-6E cells (human) (UniProt Q8N423); assay: flow cytometry, transiently transfected HEK293-6E cells
Chain of Human LILRB2 on transiently transfected HEK293-6E cells (human) (Q8N423 22-597): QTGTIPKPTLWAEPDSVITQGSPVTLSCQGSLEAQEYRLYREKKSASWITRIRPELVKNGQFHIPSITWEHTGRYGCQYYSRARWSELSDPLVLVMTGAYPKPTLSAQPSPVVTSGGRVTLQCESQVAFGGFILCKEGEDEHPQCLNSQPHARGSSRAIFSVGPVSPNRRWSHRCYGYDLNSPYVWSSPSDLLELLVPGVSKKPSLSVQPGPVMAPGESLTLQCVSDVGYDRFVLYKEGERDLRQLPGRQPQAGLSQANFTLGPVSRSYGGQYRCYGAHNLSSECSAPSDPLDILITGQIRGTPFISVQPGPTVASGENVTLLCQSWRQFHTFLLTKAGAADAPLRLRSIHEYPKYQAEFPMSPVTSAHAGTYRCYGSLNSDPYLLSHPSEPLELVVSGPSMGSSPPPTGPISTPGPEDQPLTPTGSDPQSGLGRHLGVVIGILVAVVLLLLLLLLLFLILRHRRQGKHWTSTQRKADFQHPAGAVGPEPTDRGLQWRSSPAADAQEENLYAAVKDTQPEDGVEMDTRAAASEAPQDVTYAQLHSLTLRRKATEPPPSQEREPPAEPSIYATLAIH

[7] = target: Human LILRB2 on stably transduced HEK293T cells (human) (UniProt Q8N423); assay: flow cytometry competition on HEK293T-LILRB2 cells; blocking mAb 0.1 µg/mL; competitor: biotinylated B2Comp1

Chain of Human LILRB2 on stably transduced HEK293T cells (human) (Q8N423 other isoform, or with tags, fused parts or gaps limits assumed): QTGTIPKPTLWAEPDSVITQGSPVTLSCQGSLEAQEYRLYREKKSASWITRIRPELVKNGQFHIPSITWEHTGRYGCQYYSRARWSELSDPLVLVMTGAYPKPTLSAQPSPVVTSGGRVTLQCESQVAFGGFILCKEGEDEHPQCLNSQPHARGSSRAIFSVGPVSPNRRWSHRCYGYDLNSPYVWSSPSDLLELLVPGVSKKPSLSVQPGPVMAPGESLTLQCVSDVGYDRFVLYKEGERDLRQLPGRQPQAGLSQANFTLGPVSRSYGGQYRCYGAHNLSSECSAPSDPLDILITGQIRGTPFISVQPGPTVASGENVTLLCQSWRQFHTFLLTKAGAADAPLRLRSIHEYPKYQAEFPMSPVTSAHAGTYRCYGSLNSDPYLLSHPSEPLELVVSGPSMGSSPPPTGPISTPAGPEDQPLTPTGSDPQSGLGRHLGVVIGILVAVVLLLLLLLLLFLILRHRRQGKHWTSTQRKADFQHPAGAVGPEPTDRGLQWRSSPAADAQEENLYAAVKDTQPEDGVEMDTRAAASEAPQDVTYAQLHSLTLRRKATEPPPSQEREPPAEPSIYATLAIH

% Blocking of B2Comp2 Binding [1]: 97%
% Blocking of B2Comp1 Binding [2]: 78%
% Blocking of B2Comp2 Binding [3]: 100%
% Blocking of B2Comp1 Binding [4]: 80%
% Blocking of B2Comp2 Binding [5]: 44%
Bmax (MFI) [6]: 9630 MFI
% Blocking of B2Comp1 Binding [7]: 47%
B1: B2Comp2 (antibody, IgG4, V domains shown)
VH: QITLKESGPTLVKPTQTLTLTCTFSGFSLNTYAMGVSWIRQPPGKALEWLASIWWNGNKYNNPSLKSRLTVTKDTSKNQVVLTMTNMDPVDTATYYCAHSRIIRFTDYVMDAWGQGTLVTVSS
VL: DIQMTQSPSSLSTSVGDRVTITCRASEDIYNDLAWYQQKPGKAPKLLIYNANSLHTGVASRFSGSGSGTDFTFTISSLQPEDVATYFCQQYYDYPLTFGQGTKLEIKR
modifications: Biotin-conjugated when used as the labelled ('hot') benchmark antibody in the binning assay. The site is not stated and is not carried by the letters.
